Measured values published in the supplement of paper PMC10126150.
± gives the standard deviation of the averaged measurements.

System: ATP
Assay: switch fluorescence ratio, 500 uM ATP over buffer (Cy3 cluster intensity, sum of 5 cycles each) (fold (ratio)); higher = stronger signal-on switching upon ATP binding; sequences stand for … in TCGTCGGCAGCGTCAGATGTGTATAAGAGACAGTTTTTTTTTTTTTTTTTTTTTTTTT…TC
Conditions: aptamer strand: ATP DNA aptamer (quencher-CACCTGGGGGAGTATTGCGGAGGAAGG + anchor), 100 nM annealed; ATP concentration: 500 uM
Outline: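 The fluorescence ratio divides summed target-cycle Cy3 intensity by summed buffer-cycle Cy3 intensity for each cluster and is averaged per switch-domain sequence. Cy3-labelled switching-strand clusters on a modified Illumina MiSeq flow-cell were annealed to 100 nM quencher-labelled ATP aptamer, then imaged in selection buffer and again after 15 min with 500 uM ATP at 22 °C. Five such cycles were run, with NaOH stripping and re-annealing between them, and clusters outside 100-1000 RFU were excluded.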
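Note: ATP exposure 15 min at 22 °C before imaging.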

Sequence	switch fluorescence ratio
TTTAGGTACT	1.25 ± 0.34
GTAGGAACCT	1.8 ± 0.12
ACGCTTACTA	1.44 ± 0.054
TTCAGTCCGG	1.01 ± 0.026
TTGGGGTGCT	0.992 ± 0.035
AAGGGTTGCG	0.985 ± 0.024
TTCGAAAGGT	1.1 ± 0.2
TCATGATAGT	0.9825 ± 0.0081
TGATTTTAAG	0.999 ± 0.018
GTCTCAGGTT	1.04 ± 0.014
ATAGTTATTT	0.989 ± 0.014
GTTCTTGTAA	1.017 ± 0.0088
GGGATCCAGG	1.23 ± 0.087
GGCTGAGGGG	0.972 ± 0.042
CGGGAGTTCG	0.992 ± 0.077
TTGAAGTGCG	1.02 ± 0.049
TGGAGATTGT	0.943 ± 0.032
GGTTAGGGTG	1.047 ± 0.007
TCCCGGGAAA	1.04 ± 0.082
GACCAGGGAT	1.088 ± 0.0031
AATAAGACGG	1.011 ± 0.0061
TTTTAGGCTC	1.03 ± 0.039
TGATAGGGTC	1.06 ± 0.11

Sequence	switch fluorescence ratio
TTAGCGTTGT	0.96 ± 0.028
TCTAAGGGGG	1.015 ± 0.0074
GATTCTCGGG	1.01 ± 0.016
CTAAGGATGC	1.03 ± 0.021
TTATTTAGCG	1.03 ± 0.029
TATGTATATA	1.01 ± 0.079
GAATGTATTG	1.013 ± 0.006
TGGGTAACGA	0.962 ± 0.021
CATAAAGTAG	1.02 ± 0.014
TTTAATTTTA	1 ± 0.02
ATTTAAATGT	1.01 ± 0.023
AGACTGAATT	1.03 ± 0.02
TAATGGAAAA	1.15 ± 0.28
AAATTATTT	1.02 ± 0.051
ATATATTTTA	1.01 ± 0.022
CATGTTAGTA	1.02 ± 0.021
CTTTTTTTAG	1.0383 ± 0.001
CGCCTAAGTT	1 ± 0.036
AAAGTACGGT	1.21 ± 0.024
AAGGCCTATA	0.998 ± 0.0088
AAGGTTGTAA	0.985 ± 0.021
AGCCATATTT	1.04 ± 0.028
CATGGGGGAT	1.01 ± 0.035

Sequence	switch fluorescence ratio
TGGGTTTAGC	1 ± 0.043
TGCCGAGGTG	1.38 ± 0.12
GATCTTGCCT	1.02 ± 0.026
TAAATTTGAC	0.996 ± 0.036
TGTACTTCTT	1.24 ± 0.3
GGGCTGTAAG	0.997 ± 0.04
CCTATTACGA	1.04 ± 0.015
TTTGCAGGGG	1.06 ± 0.1
CGGTAGGGTT	0.978 ± 0.022
TGGTTTAGAG	0.979 ± 0.024
TGTGTTAAAT	1.04 ± 0.011
AGTGGGTTTC	0.9697 ± 0.0026
TGTTGTATTG	0.9761 ± 0.0066
GGAATCGGTG	0.996 ± 0.04
TGGGGTTTGA	0.997 ± 0.032
ACCATCGATA	1.03 ± 0.024
ATCAAGGGTT	0.991 ± 0.025
AGGCAGGGGA	1.03 ± 0.025
GTTGTAAAAA	0.968 ± 0.046
TTACGGGGTT	0.988 ± 0.035
TCTCTGTTGA	1.01 ± 0.057
GACGATGGGT	1.029 ± 0.0032
TTAATGCTTT	1.13 ± 0.23

Sequence	switch fluorescence ratio
GATAACGAAG	1.008 ± 0.006
AAGGACGGGG	0.974 ± 0.011
ATATGGGGGG	0.998 ± 0.023
AAAGCTGGAG	1.03 ± 0.021
ACAGTTCCCC	1.13 ± 0.25
CACTATTAGT	0.979 ± 0.01
CAGGGCTATG	1.01 ± 0.016
TAGAGGGCAG	1.03 ± 0.023
GTGGAAGGCA	0.9925 ± 0.0025
CCCCATTTTA	1 ± 0.018
TTAAGGGAAC	0.9966 ± 0.0052
TTTAAAACGG	1.01 ± 0.06
GAAGGAACCG	1.025 ± 0.0063
TAGGAGGAGT	0.951 ± 0.017
ATGAAGGGAA	0.999 ± 0.017
AGGGGGAATG	1 ± 0.044
TGGATTAGGC	1.01 ± 0.048
TATTAGGCGC	0.982 ± 0.022
CAGTGATGGA	1.007 ± 0.0046
TTGGAATGT	1.029 ± 0.0083
AGTTTCCTAG	0.971 ± 0.022
CATACTCAGA	1 ± 0.045
TCGTTGGACT	1.01 ± 0.0029

Sequence	switch fluorescence ratio
ACTTAATGTA	1 ± 0.03
CGGGGGAAAG	1.01 ± 0.041
GGATTAGGGG	0.998 ± 0.022
TATTATTTTG	1 ± 0.049
TATGATGGGC	0.9577 ± 0.0057
TTTGAGGTGC	1.06 ± 0.031
GATTTTTTGC	0.98176 ± 0.00098
TAGATATTGG	1.01 ± 0.016
TTCAGGCTTT	1.01 ± 0.011
TTAGCTGTTT	0.995 ± 0.035
TTATAGCACC	1.06 ± 0.021
GTTAGGGGAA	1.02 ± 0.031
GATGTGATTC	1.04 ± 0.027
ATTTGGAGG	0.986 ± 0.013
TCCAGTCAAA	1.01 ± 0.075
CGCCTGGGCA	1.02 ± 0.043
GATAATATTT	0.986 ± 0.011
AGTATCTTCG	0.9923 ± 0.0027
TTTAGGATCC	0.983 ± 0.022
TTTCGATAGG	0.979 ± 0.034
TAAAGGAAGG	0.9801 ± 0.0066
TTTGATAATA	1.02 ± 0.056
AAGACGGGGT	1.01 ± 0.049

Sequence	switch fluorescence ratio
AGGTGGTGCT	0.991 ± 0.056
TCACTCGAAG	1.01 ± 0.0067
CAGGGAAAGA	1 ± 0.011
CGTGAAGGGT	0.992 ± 0.013
GCGCCAAGGA	1.08 ± 0.09
TTATTCGATT	0.982 ± 0.019
CTGGGTTTTT	0.992 ± 0.03
CTTTTAGTTA	1.01 ± 0.015
GGGCAAGAAT	0.997 ± 0.017
TTGAACGGTG	1.03 ± 0.047
GGGAGAAATT	1.02 ± 0.061
CCTGGTGACG	1.035 ± 0.002
GAGCTTGTGG	1.03 ± 0.015
ATGTAGTTGG	1 ± 0.016
TTTTCTGTTT	0.996 ± 0.047
TTTAAGTACG	1.21 ± 0.048
ATGGTTTATA	0.977 ± 0.045
TTTTAATAGT	1.01 ± 0.018
TTGTCGTGCC	1.031 ± 0.0098
GAGATTGCAG	0.974 ± 0.069
TAGGTTTGCC	1.08 ± 0.021
GTTCAGTTGC	0.996 ± 0.033
CGTCGCAGTG	1.03 ± 0.052

Sequence	switch fluorescence ratio
CCCGTGCCAG	1.02 ± 0.025
GAAACAATTG	0.9897 ± 0.0075
TAAGGGGTAC	1 ± 0.013
CCGGGGGCAG	1.105 ± 0.0064
TTTACGTTTT	1.03 ± 0.041
GTAGCTTATC	2.08 ± 0.067
CGTTGGGTCC	0.987 ± 0.029
ACAGGGGTAA	1.01 ± 0.013
TTGATGTGGT	0.997 ± 0.084
GGCGTAGTTA	0.985 ± 0.018
TATTGGTTGT	0.999 ± 0.029
GATAATAAGT	1.01 ± 0.016
TTGGAAGTGC	1 ± 0.056
TTTGGTTAGG	0.985 ± 0.019
TTCCTTCGAT	1.51 ± 0.062
ACCAGCCGGG	1.09 ± 0.062
AGGTGCTGGG	1.03 ± 0.013
TAATGACCAA	1.019 ± 0.0071
CGGGGCAGGG	1.01 ± 0.062
